Experimental findings from PMC314469, “Protein Interaction Networks by Proteome Peptide Scanning” (PLoS Biology, 2004) are described below.

Experiment [1] addresses T1, amphyphisin SH3 (AMPH_HUMAN), P49418.
T1 chain: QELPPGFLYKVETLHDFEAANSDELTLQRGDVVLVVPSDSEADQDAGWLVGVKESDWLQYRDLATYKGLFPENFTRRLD
Kind of experiment: SPOT array.

The target in experiment [2] is endophilin SH3 (SH3G2_HUMAN), Q99962. Kind of experiment: SPOT array.

As for AKREPRRPSWSPRL [Q96BH5 55-68], the normalised SPOT signal, Boehringer light units (BLU); mean over the file's lines of this peptide in experiment [1] was 47.1; in experiment [2], 195.
With GGGSPEKPPSRRRP [O95153 1407-1421], the normalised SPOT signal, Boehringer light units (BLU); mean over the file's lines of this peptide in experiment [1] came out at 811; in experiment [2], 499.
Taken in the same sequence, the figures for GEQTFKRPAEDTLY [Q96LK2 45-58] were 15.2 and 15.9.
In the case of AALRPPRPARGSRL [Q9BZJ7 202-215], the normalised SPOT signal, Boehringer light units (BLU); mean over the file's lines of this peptide is 17100 in experiment [1] and 23700 in experiment [2].
For the molecule GGVRLRRPSVNGEP [Q9H7M7 1141-1154], the normalised SPOT signal, Boehringer light units (BLU); mean over the file's lines of this peptide in experiment [1] worked out at 35.8; in experiment [2], 36.
On to GGDALGRPPRGARS [Q9H3Z7 68-81], for which the normalised SPOT signal, Boehringer light units (BLU); mean over the file's lines of this peptide worked out at 2160 in experiment [1] and 741 in experiment [2].
AKMPLRRPKMKKTP [O95359 373-386]: the normalised SPOT signal, Boehringer light units (BLU); mean over the file's lines of this peptide is 34.8 in experiment [1] and 200 in experiment [2].
As to AKRHPRRPPRSPGM [Q99973 387-400], the normalised SPOT signal, Boehringer light units (BLU); mean over the file's lines of this peptide was 1220 in experiment [1] and 141 in experiment [2].
In the case of AAALPAKPPNLDAA [Q96GI7 75-89], the results for the normalised SPOT signal, Boehringer light units (BLU); mean over the file's lines of this peptide in experiment [1] and in experiment [2] were 53.7 and 73, respectively.
Taken in the same sequence, the figures for GESRIRRPMNAFMV [Q9H6I2 64-77] were 46.4 and 138.
Turning to GEGGPQRPSRSQRR [O75145 4-17], the normalised SPOT signal, Boehringer light units (BLU); mean over the file's lines of this peptide in experiment [1] turned out to be 9950; in experiment [2], 1590.
For the molecule GGHGPERPKRPGSL [Q9HCE9 771-784], the normalised SPOT signal, Boehringer light units (BLU); mean over the file's lines of this peptide in experiment [1] came to 7740; in experiment [2] it was 1320.
For the molecule GFGVLRRPRPTPGD [Q9H5X0 195-208], the normalised SPOT signal, Boehringer light units (BLU); mean over the file's lines of this peptide is 38.4 in experiment [1] and 74.2 in experiment [2].
Take GEGMFRRPSEGQSL [Q92622 499-512]: the normalised SPOT signal, Boehringer light units (BLU); mean over the file's lines of this peptide in experiment [1] amounted to 43.2; in experiment [2] it was 68.7.
On to GGFKPSRPPRPSRP [O43584 81-95], for which the normalised SPOT signal, Boehringer light units (BLU); mean over the file's lines of this peptide was found to be 18100 in experiment [1] and 22700 in experiment [2].
Consider GEPSPKRPRGRPKG [P52926 41-54], for which the results for the normalised SPOT signal, Boehringer light units (BLU); mean over the file's lines of this peptide in experiment [1] and in experiment [2] were 23.6 and 59.1, respectively.
Taken in the same sequence, the figures for GESRLKRPSVLISA [Q13319 50-63] were 31.9 and 0.
For the molecule GHGEPRRPPSDPLA [Q14349 378-391], the normalised SPOT signal, Boehringer light units (BLU); mean over the file's lines of this peptide in experiment [1] stood at 20.6; in experiment [2] it was 65.1.
Taken in the same sequence, the figures for GGQPPPRPPPGMPH [Q15427 329-343] were 43.1 and 536.
On the same counts, the results for GGRTPRRPGLQSGG [O94836 58-71] are 28 and 72.8.
In the case of GGPRPRRPLLLPNL [Q9UQ05 736-749], the values for the normalised SPOT signal, Boehringer light units (BLU); mean over the file's lines of this peptide in experiment [1] and in experiment [2] were 40.5 and 2950, respectively.
Taken in the same sequence, the figures for GGFLPARPPRAQRH [Q9ULP6 14-28] were 18500 and 14800.
With GEQAPARPPRNVQA [Q9UM81 410-423], the normalised SPOT signal, Boehringer light units (BLU); mean over the file's lines of this peptide in experiment [1] is 3470; in experiment [2], 527.
As to GEVPPPRPPPPEEK [P18206 866-880], the normalised SPOT signal, Boehringer light units (BLU); mean over the file's lines of this peptide was found to be 45.2 in experiment [1] and 1140 in experiment [2].
For the molecule GGPSPSRPPPSLFS [O43823 235-249], the normalised SPOT signal, Boehringer light units (BLU); mean over the file's lines of this peptide in experiment [1] turned out to be 93.5; in experiment [2] it was 1350.
As to GGASPLRPPGAGPQ [Q9H013 877-891], the normalised SPOT signal, Boehringer light units (BLU); mean over the file's lines of this peptide in experiment [1] is 63.9; in experiment [2] it was 80.4.
On the same counts, the results for GFPAPFRPSRKRSG [O43594 101-114] are 9490 and 10200.
Taken in the same sequence, the figures for GGASPGRPPQPEQP [Q00056 105-119] were 38.2 and 845.
